According to patent publication US7470669B2, “Isolated polypeptide comprising a leptin fragment” (Serono Genetics Institute, S.A., priority 1999, dated 2008):

Target: T1, LSR α′ (Homo sapiens, UniProt Q86X29)
T1 construct: The full-length LSR α, α′, and β clones were reconstructed in pTracer-CMV2 vector; expressed in transfected cells; host or cells: CHO-K1 (transient with Fugene)
T1 sequence (Q86X29 1-630 isoform Q86X29-4): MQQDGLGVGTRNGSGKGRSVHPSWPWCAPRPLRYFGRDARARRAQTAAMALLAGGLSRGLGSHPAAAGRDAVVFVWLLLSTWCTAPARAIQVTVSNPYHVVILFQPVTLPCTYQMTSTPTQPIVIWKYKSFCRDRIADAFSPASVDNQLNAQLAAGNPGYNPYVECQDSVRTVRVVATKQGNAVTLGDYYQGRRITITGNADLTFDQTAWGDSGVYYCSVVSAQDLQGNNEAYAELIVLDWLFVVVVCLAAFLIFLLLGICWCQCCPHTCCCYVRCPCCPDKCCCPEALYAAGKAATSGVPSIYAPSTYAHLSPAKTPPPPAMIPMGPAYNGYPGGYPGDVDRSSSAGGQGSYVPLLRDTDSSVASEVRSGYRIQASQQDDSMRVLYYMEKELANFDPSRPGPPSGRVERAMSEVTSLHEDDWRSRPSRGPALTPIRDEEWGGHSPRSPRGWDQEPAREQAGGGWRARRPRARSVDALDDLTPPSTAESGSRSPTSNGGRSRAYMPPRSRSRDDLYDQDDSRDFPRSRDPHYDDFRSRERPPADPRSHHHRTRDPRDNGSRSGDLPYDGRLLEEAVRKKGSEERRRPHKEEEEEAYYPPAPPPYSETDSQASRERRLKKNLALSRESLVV
Test: 125I-leptin binding, uptake and degradation in CHO-K1 cells transfected with LSR α′
Type: cell-based
Protocol: FIGS. 3A, 3B, 3C, and 3D show the effect of LSR subunit transfection on leptin binding and degradation in CHO-K1 cells. For FIG. 3A, CHO-K1 cells were transfected with increasing concentrations of the α, (□), α′ (▪) or β (◯) LSR plasmid, or vector alone (●) using Fugene transfection reagent. After 48 h, the cells were washed once in PBS and incubated at 37° C. for 2 h with 10 ng/mL of ^125I-leptin in DMEM containing 0.2% (w/v) BSA, 2 mM CaCl2 and 5 mM HEPES, pH 7.4 (Buffer A). The monolayers were washed and lysed with 0.1 N NaOH containing 0.24 mM EDTA, and the lysates were counted. The results are shown as the amount of cell-associated ^125I-leptin. For FIG. 3B, lysates were prepared from CHO-K1 wild type, stable transfectants of vector or LSR α′ subunit, and PLC, and separated on a 10% SDS-polyacrylamide gel under denaturing and reduced conditions. After transfer to nitrocellulose, Western blots were performed using anti-LSR 170 antibody (can also be done with the human equivalent, 93A). Northern blots were done to detect LSR mRNA in CHO-K1 wild-type versus PLC. RT-PCR analysis was also done in CHO-K1 as compared to PLC. For FIGS. 3C and 3D, confluent monolayers of stable-transfected cell lines expressing LSR α′ subunit (▪) or vector alone (●) were washed once in PBS and incubated at 37° C. for 2 h with increasing concentrations of ^125I-leptin in Buffer A. The amount of cell-associated (FIG. 3C) and degraded (FIG. 3D) ^125I-leptin was then measured as described herein. Results are shown as the mean of triplicate determinations.
CHO-K1 cells were plated at a density of 300,000 cells/36 mm dish the day before transfection. After 24 h, plasmid preincubated with Fugene transfection reagent was added to the cells, which were further incubated at 37° C. Cells were used 48 h after transfection as described in the Brief Description of the Figures.
Stable transfectants were prepared from CHO-K1 cells using Superfect according to the manufacturer's instructions. After introduction of the plasmid into the cell with Superfect, the cells were grown in the presence of 750 μg/mL zeocin. After elimination of untransfected cells, the antibiotic concentration was reduced to 500 μg/mL. Clones were isolated using cloning cylinders, and maintained in tissue culture media containing 100 μg/mL zeocin.
To determine which of the LSR subunits is responsible for leptin binding, CHO-K1 cells were transiently transfected with increasing concentrations of each of the 3 human LSR plasmids (FIG. 3A). CHO-K1 cells were selected because they had the lowest level of endogenous LSR expression of the different cell lines tested. This level is far lower than that of a human hepatocyte cell line (PLC) used to systematically characterize human LSR activity (FIG. 3B). […]

## leptin: plasma protein of 16 kDa produced by adipocytes; recombinant human or mouse leptin, species depends on the experiment
CHO-K1 cells stably expressing LSR α′, Lineweaver-Burk transformation, read-out: estimated Kd of leptin binding
  Kd: 1.3 nM
CHO-K1 cells transfected with LSR α′
  amount of 125I-leptin degraded as share of that bound and internalized by the cells: 16%
LSR α′ Kd versus Ob-R Kd
  Kd relative to that of the Ob-R: ~2 fold
Transient transfection with LSR α′ plasmid, 10 ng/mL 125I-leptin, 2 h 37° C.
  binding of leptin to CHO-K1 cells: increased
